Assay results published in patent US20230242651A1 (published 2023).
Changes are numbered by the printed parent chain.

T1: human interleukin-23 receptor (IL23R) (human, UniProt Q5VWK5 24-355, limits assumed)
T1 construct: also called human IL23R
T1 sequence (looked up): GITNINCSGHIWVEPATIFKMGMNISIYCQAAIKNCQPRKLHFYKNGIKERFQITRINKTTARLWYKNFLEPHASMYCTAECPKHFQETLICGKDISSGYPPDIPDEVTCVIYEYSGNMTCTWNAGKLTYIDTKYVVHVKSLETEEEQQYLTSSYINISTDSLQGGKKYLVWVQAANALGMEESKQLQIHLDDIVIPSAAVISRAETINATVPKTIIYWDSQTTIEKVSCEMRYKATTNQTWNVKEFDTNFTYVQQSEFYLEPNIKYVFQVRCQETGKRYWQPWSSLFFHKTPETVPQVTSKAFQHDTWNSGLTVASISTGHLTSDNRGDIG

B1: Vκ2/VH4 consensus (uncapped), human IL23R specific scFv (scFv)
scFv: DIVMTQSPLSLPVTPGEPASISCQASENIYSFLAWYLQKPGQSPQLLIYSASKLAAGVPDRFSGSGSGTDFTLKISRVEAEDVGVYYCQQTNRYSNPDIYNVFGQGTKVEIKRGGGGSGGGGSGGGGSGGGGSQVQLQESGPGLVKPSETLSLTCTVSGIDFNSNYYMCWIRQPPGKGLEWIGCIYVGSHVNTYYANWAKGRVTISVDTSKNQFSLKLSSVTAADTAVYYCATSGSSVLYFKFWGQGTLVTVSS
notes: scFv VL-linker-VH, made in E. coli; Vκ framework IV (uncapped, full consensus); also called Vκ2VH4 uncapped
B2: Vκ3/VH3 consensus λ-capped, human IL23R specific scFv (scFv)
scFv: DIVLTQSPATLSLSPGERATLSCQASENIYSFLAWYQQKPGQAPRLLIYSASKLAAGVPARFSGSGSGTDFTLTISSLEPEDFAVYYCQQTNRYSNPDIYNVFGGGTKLTVLGGGGGSGGGGSGGGGSGGGGSEVQLVESGGGLVQPGGSLRLSCAASGIDFNSNYYMCWVRQAPGKGLEWVSCIYVGSHVNTYYANWAKGRFTISRDNSKNTLYLQMNSLRAEDTAVYYCATSGSSVLYFKFWGQGTLVTVSS
notes: scFv VL-linker-VH, made in E. coli; also called Vκ3VH3 capped
B3: Vκ3/VH1A consensus (uncapped), human IL23R specific scFv (scFv)
scFv: DIVLTQSPATLSLSPGERATLSCQASENIYSFLAWYQQKPGQAPRLLIYSASKLAAGVPARFSGSGSGTDFTLTISSLEPEDFAVYYCQQTNRYSNPDIYNVFGQGTKVEIKRGGGGSGGGGSGGGGSGGGGSQVQLVQSGAEVKKPGSSVKVSCKASGIDFNSNYYMCWVRQAPGQGLEWMGCIYVGSHVNTYYANWAKGRVTITADESTSTAYMELSSLRSEDTAVYYCATSGSSVLYFKFWGQGTLVTVSS
notes: scFv VL-linker-VH, made in E. coli; Vκ framework IV (uncapped, full consensus); also called Vκ3VH1A uncapped
B4: Vκ3/VH1B consensus (uncapped), human IL23R specific scFv (scFv)
scFv: B3 scFv with S149A, I205M, A207R, E209T, T211I
notes: scFv VL-linker-VH, made in E. coli; Vκ framework IV (uncapped, full consensus); also called Vκ3VH1B uncapped
B5: Vκ1/VH2 consensus λ-capped, human IL23R specific scFv (scFv)
scFv: DIQMTQSPSSLSASVGDRVTITCQASENIYSFLAWYQQKPGKAPKLLIYSASKLAAGVPSRFSGSGSGTDFTLTISSLQPEDFATYYCQQTNRYSNPDIYNVFGGGTKLTVLGGGGGSGGGGSGGGGSGGGGSQVQLKESGPALVKPTQTLTLTCTFSGIDFNSNYYMCWIRQPPGKALEWLACIYVGSHVNTYYANWAKGRLTISKDTSKNQVVLTMTNMDPVDTATYYCATSGSSVLYFKFWGQGTLVTVSS
notes: scFv VL-linker-VH, made in E. coli; also called Vκ1VH2 capped
B6: Vκ3/VH2 consensus (uncapped), human IL23R specific scFv (scFv)
scFv: DIVLTQSPATLSLSPGERATLSCQASENIYSFLAWYQQKPGQAPRLLIYSASKLAAGVPARFSGSGSGTDFTLTISSLEPEDFAVYYCQQTNRYSNPDIYNVFGQGTKVEIKRGGGGSGGGGSGGGGSGGGGSQVQLKESGPALVKPTQTLTLTCTFSGIDFNSNYYMCWIRQPPGKALEWLACIYVGSHVNTYYANWAKGRLTISKDTSKNQVVLTMTNMDPVDTATYYCATSGSSVLYFKFWGQGTLVTVSS
notes: scFv VL-linker-VH, made in E. coli; Vκ framework IV (uncapped, full consensus); also called Vκ3VH2 uncapped
B7: Vκ2/VH6 consensus (uncapped), human IL23R specific scFv (scFv)
scFv: DIVMTQSPLSLPVTPGEPASISCQASENIYSFLAWYLQKPGQSPQLLIYSASKLAAGVPDRFSGSGSGTDFTLKISRVEAEDVGVYYCQQTNRYSNPDIYNVFGQGTKVEIKRGGGGSGGGGSGGGGSGGGGSQVQLQQSGPGLVKPSQTLSLTCAISGIDFNSNYYMCWIRQSPGRGLEWLGCIYVGSHVNTYYANWAKGRITINPDTSKNQFSLQLNSVTPEDTAVYYCATSGSSVLYFKFWGQGTLVTVSS
notes: scFv VL-linker-VH, made in E. coli; Vκ framework IV (uncapped, full consensus); also called Vκ2VH6 uncapped
B8: Vκ1/VH5 consensus λ-capped, human IL23R specific scFv (scFv)
scFv: DIQMTQSPSSLSASVGDRVTITCQASENIYSFLAWYQQKPGKAPKLLIYSASKLAAGVPSRFSGSGSGTDFTLTISSLQPEDFATYYCQQTNRYSNPDIYNVFGGGTKLTVLGGGGGSGGGGSGGGGSGGGGSEVQLVQSGAEVKKPGESLKISCKGSGIDFNSNYYMCWVRQMPGKGLEWMGCIYVGSHVNTYYANWAKGQVTISADKSISTAYLQWSSLKASDTAMYYCATSGSSVLYFKFWGQGTLVTVSS
notes: scFv VL-linker-VH, made in E. coli; also called Vκ1VH5 capped
B9: Vκ1/VH3 consensus λ-capped, human IL23R specific scFv (scFv)
scFv: DIQMTQSPSSLSASVGDRVTITCQASENIYSFLAWYQQKPGKAPKLLIYSASKLAAGVPSRFSGSGSGTDFTLTISSLQPEDFATYYCQQTNRYSNPDIYNVFGGGTKLTVLGGGGGSGGGGSGGGGSGGGGSEVQLVESGGGLVQPGGSLRLSCAASGIDFNSNYYMCWVRQAPGKGLEWVSCIYVGSHVNTYYANWAKGRFTISRDNSKNTLYLQMNSLRAEDTAVYYCATSGSSVLYFKFWGQGTLVTVSS
notes: scFv VL-linker-VH, made in E. coli; also called Vκ1VH3 capped
B10: Vκ1/VH1A consensus λ-capped, human IL23R specific scFv (scFv)
scFv: DIQMTQSPSSLSASVGDRVTITCQASENIYSFLAWYQQKPGKAPKLLIYSASKLAAGVPSRFSGSGSGTDFTLTISSLQPEDFATYYCQQTNRYSNPDIYNVFGGGTKLTVLGGGGGSGGGGSGGGGSGGGGSQVQLVQSGAEVKKPGSSVKVSCKASGIDFNSNYYMCWVRQAPGQGLEWMGCIYVGSHVNTYYANWAKGRVTITADESTSTAYMELSSLRSEDTAVYYCATSGSSVLYFKFWGQGTLVTVSS
notes: scFv VL-linker-VH, made in E. coli; also called Vκ1VH1A capped
B11: Vκ1/VH1B consensus λ-capped, human IL23R specific scFv (scFv)
scFv: B10 scFv with S149A, I205M, A207R, E209T, T211I
notes: scFv VL-linker-VH, made in E. coli; also called Vκ1VH1B capped
B12: Vκ2/VH5 consensus (uncapped), human IL23R specific scFv (scFv)
scFv: DIVMTQSPLSLPVTPGEPASISCQASENIYSFLAWYLQKPGQSPQLLIYSASKLAAGVPDRFSGSGSGTDFTLKISRVEAEDVGVYYCQQTNRYSNPDIYNVFGQGTKVEIKRGGGGSGGGGSGGGGSGGGGSEVQLVQSGAEVKKPGESLKISCKGSGIDFNSNYYMCWVRQMPGKGLEWMGCIYVGSHVNTYYANWAKGQVTISADKSISTAYLQWSSLKASDTAMYYCATSGSSVLYFKFWGQGTLVTVSS
notes: scFv VL-linker-VH, made in E. coli; Vκ framework IV (uncapped, full consensus); also called Vκ2VH5 uncapped
B13: Vκ1/VH4 consensus λ-capped, human IL23R specific scFv (scFv)
scFv: DIQMTQSPSSLSASVGDRVTITCQASENIYSFLAWYQQKPGKAPKLLIYSASKLAAGVPSRFSGSGSGTDFTLTISSLQPEDFATYYCQQTNRYSNPDIYNVFGGGTKLTVLGGGGGSGGGGSGGGGSGGGGSQVQLQESGPGLVKPSETLSLTCTVSGIDFNSNYYMCWIRQPPGKGLEWIGCIYVGSHVNTYYANWAKGRVTISVDTSKNQFSLKLSSVTAADTAVYYCATSGSSVLYFKFWGQGTLVTVSS
notes: scFv VL-linker-VH, made in E. coli; also called Vκ1VH4 capped
B14: Vκ3/VH5 consensus λ-capped, human IL23R specific scFv (scFv)
scFv: DIVLTQSPATLSLSPGERATLSCQASENIYSFLAWYQQKPGQAPRLLIYSASKLAAGVPARFSGSGSGTDFTLTISSLEPEDFAVYYCQQTNRYSNPDIYNVFGGGTKLTVLGGGGGSGGGGSGGGGSGGGGSEVQLVQSGAEVKKPGESLKISCKGSGIDFNSNYYMCWVRQMPGKGLEWMGCIYVGSHVNTYYANWAKGQVTISADKSISTAYLQWSSLKASDTAMYYCATSGSSVLYFKFWGQGTLVTVSS
notes: scFv VL-linker-VH, made in E. coli; also called Vκ3VH5 capped
B15: Vκ3/VH4 consensus λ-capped, human IL23R specific scFv (scFv)
scFv: DIVLTQSPATLSLSPGERATLSCQASENIYSFLAWYQQKPGQAPRLLIYSASKLAAGVPARFSGSGSGTDFTLTISSLEPEDFAVYYCQQTNRYSNPDIYNVFGGGTKLTVLGGGGGSGGGGSGGGGSGGGGSQVQLQESGPGLVKPSETLSLTCTVSGIDFNSNYYMCWIRQPPGKGLEWIGCIYVGSHVNTYYANWAKGRVTISVDTSKNQFSLKLSSVTAADTAVYYCATSGSSVLYFKFWGQGTLVTVSS
notes: scFv VL-linker-VH, made in E. coli; also called Vκ3VH4 capped

target: T1, human interleukin-23 receptor (IL23R); assay: SPR, scFv
Method in brief: (§1)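 Affinity values for human IL23R come from surface plasmon resonance, expressed as rate constants and dissociation constant or as the λ-capped to uncapped dissociation-constant ratio. The tested molecules were humanized rabbit scFv on consensus germline framework pairs, either uncapped or with Vκ framework IV replaced by a Vλ germline sequence (λ-cap), refolded from E. coli inclusion bodies.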

Binder | Kd [pM] | koff [s⁻¹] | kon [M⁻¹ s⁻¹]
B1 | 125 | 0.000157 | 1.26e+06
B2 | 22 | 6.38e-05 | 2.89e+06
B3 | 297 | 0.000479 | 1.61e+06
B4 | 455 | 0.000724 | 1.59e+06
B5 | 73.1 | 0.000128 | 1.76e+06
B6 | 462 | 0.000363 | 786000
B7 | 3240 | 0.000288 | 88700
B8 | 398 | 0.000671 | 1.69e+06
B9 | 13.7 | 5.43e-05 | 3.95e+06
B10 | 166 | 0.000616 | 3.71e+06
B11 | 199 | 0.000478 | 2.4e+06
B12 | 303 | 0.000475 | 1.57e+06
B13 | 45.5 | 0.000191 | 4.2e+06
B14 | 864 | 0.0013 | 1.5e+06
B15 | 123 | 0.000288 | 2.35e+06

target: T1, human interleukin-23 receptor (IL23R); assay: SPR, scFv (summary table)
Method in brief: as §1

Binder | Kd [pM]
B1 | 125
B2 | 22
B3 | 297
B4 | 455
B5 | 73.1
B6 | 462
B7 | 3240
B8 | 398
B9 | 13.7
B10 | 166
B11 | 199
B12 | 303
B13 | 45.5
B14 | 864
B15 | 123

target: T1, human interleukin-23 receptor (IL23R); assay: SPR; KD of the capped scFv over KD of its uncapped counterpart
Method in brief: as §1

Binder | Ratio (capped/uncapped) of KD
B2 | 0.6
B5 | 0.3
B8 | 1.7
B9 | 0.4
B10 | 8.3
B11 | 1.2
B13 | 0.5
B14 | 1.6
B15 | 0.9
